Results on 1 molecule are retold here after patent US20260216293A1, “METHODS AND AGENTS FOR TREATING RESPIRATORY INFLAMMATION AND ASSOCIATED DISEASES AND CONDITIONS” (AROA BIOSURGERY LIMITED, priority 2023, published 2026).

Assay type in all cases: in vivo, C57BL/6 mice
For assay [1], the system named is murine model of respiratory inflammation (IT LPS). As to the kind of experiment: BALF cytokine analysis (MSD) in LPS-induced murine model of respiratory inflammation. Conditions: IV, 1 h before LPS. The protocol: All animal experiments were performed in accordance with the guidelines of decreasing the amount of suffering, pain, and discomfort of the experimental animals. A total of 54 male C57BL/6 mice were used in this study. Mice between the ages of 7 to 8 weeks were obtained from IACUC approved laboratory animal supplier. Animals were acclimated for at least 4 days prior to the study. Animals were housed in a temperature-controlled room with a 12-hour light/dark cycle, with ad libitum access to water and irradiated laboratory chow throughout the study. Animals were individually identified by ear tags. Animals were weighed one day prior to the start of the study and stratified into 6 groups of 9 animals so that each group has roughly the same average weight. Animals were monitored for any form of discomfort as well as for clinical symptoms of distress or ambulatory discomfort.
A total of 54 male C57BL/6 mice (7 to 8 weeks old, body weight […]) were used in this study, as set out below in Table 2.
At −1 h (1 hr before the lipopolysaccharide (LPS) administration), animals were treated with: Vehicle for groups 1 and 2 via an intravenous route (200 μL); dexamethasone (5 mg/kg) as a positive control (group 3) via an intraperitoneal (IP) route (5 mg/kg, 200 μL); MD31-170 for groups 4-6 via an intravenous (IV) route at the appropriate dosage (200 μL). […]
(§1) Lungs were harvested from each animal and weighed. […] The cell pellet was resuspended in 100 μL PBS and the number of total cells was counted using Cell Counter model R1 (Olympus, Tokyo, Japan). […] Neutrophil counts were quantified using a light microscope by counting a total of 200 cells/slide at 40× magnification.
BALF cytokines concentrations were evaluated from an aliquot of BALF using the 29-plex cytokine MSD Platform (Cat. K152167D) according to manufacturer's instruction.

The test system is the same in assay [2]. As to the kind of experiment: BALF neutrophil count in LPS-induced murine model of respiratory inflammation. Conditions: all assessed timepoints (6, 24, 72 hours); FIG. 5. Here is the method: (§2) At −1 h (1 hr before the lipopolysaccharide (LPS) administration), animals were treated with: Vehicle for groups 1 and 2 via an intravenous route (200 μL); dexamethasone (5 mg/kg) as a positive control (group 3) via an intraperitoneal (IP) route (5 mg/kg, 200 μL); MD31-170 for groups 4-6 via an intravenous (IV) route at the appropriate dosage (200 μL).
(§3) After administration of anesthesia by sodium pentobarbital, the mice underwent intra-tracheal (IT) instillation of a nonlethal dose of LPS from E. coli 0111: B4 (Sigma-Aldrich, St. Louis, MO, USA) at 5 mg/kg dissolved in 100 μl PBS to induce acute respiratory inflammation. LPS (Sigma L4391, O111: B4) lyophilized powder was resuspended in 0.9% saline to give aliquots at 2.5 mg/ml which were stored at […]. At time=0 h, animals in vehicle group 1 were administered PBS (40 μL) via an IT route and animals in groups 2-6 were administered LPS (40 μL) at 5 mg/kg by an IT route to induce acute respiratory inflammation. Termination occurred at either 6 h, 24 h or 72 h with each animal weighed at the endpoint.
as §1

Assay [3] shares this test system. As to the kind of experiment: MPO levels of BALF in LPS-induced murine model of respiratory inflammation. The settings on record: groups 4, 5 and 6 (2.5, 25, 100 μg/animal IV) at 6 hours and 24 hours; FIG. 6. The protocol:
as §2
After administration of anesthesia by sodium pentobarbital, the mice underwent intra-tracheal (IT) instillation of a nonlethal dose of LPS from E. coli 0111: B4 (Sigma-Aldrich, St. Louis, MO, USA) at 5 mg/kg dissolved in 100 μl PBS to induce acute respiratory inflammation. LPS (Sigma L4391, O111: B4) lyophilized powder was resuspended in 0.9% saline to give aliquots at 2.5 mg/ml which were stored at 20° C. […]
as §1
MPO levels were evaluated from an aliquot of BALF in an MPO assay using Abcam kit (Cat. Ab155458) according to manufacturer's instructions.

Assay [4] has the same test system. As to the kind of experiment: Lung histological pathology (H&E, lung injury score) in LPS-induced murine model of respiratory inflammation. Here is the method: as §2, §3
The whole lung was fixed in 10% Neutral Buffered Formalin (NBF) and embedded in paraffin and then cut into 4 μm sections. Then, the sections were deparaffinized and stained with hematoxylin and eosin (H&E) for histological evaluation.
The severity of lung tissue inflammation was evaluated using lung injury score as follows. The severity of lung damage was scored based on the following histologic features: alveolar congestion, hemorrhage, infiltration of neutrophils in airspace or vessel wall, and thickness of alveolar wall/hyaline membrane formation. Each item was graded on a five-point scale from 0 to 4:0 (minimal damage), 1 (mild damage), 2 (moderate damage), 3 (severe damage), and 4 (maximal damage).

[5] abbreviates: groups 4, 5 and 6 vs dexamethasone 5 mg/kg IP, FIGS. 7-9.

B1: MD31-170: recombinant MayDay polypeptide comprising amino acids 31-170 of ovine decorin, expressed in BL21 E. coli (protein)
chain: DEASGIGPEERFHEVPELEPMGPVCPFRCQCHLRVVQCSDLGLEKVPKDLPPDTALLDLQNNKITEIKDGDFKNLKNLHTLILINNKISKISPGAFAPLVKLERLYLSKNQLKELPEKMPKTLQELRVHENEITKVRKSV
modifications: Ovis aries
notes: recombinant MayDay polypeptide comprising amino acids 31-170 of ovine decorin, expressed in BL21 E. coli
For B1, the “protein levels of TNF-α in BALF” value in assay [1] (6 hours post-administration, compared to LPS control group (group 2), FIG. 2A) is “significantly decreased”. Moreover, the “protein levels of IFN-γ in BALF” value in assay [1] (24 hours post-administration, compared with LPS group (group 2), FIG. 3B) is listed as “significantly decreased”. The “protein levels of IL-6 in BALF” value in assay [1] (24 hours post-administration, compared with LPS group (group 2), FIG. 4B) is “significantly decreased”. Moreover, the “number of neutrophils in BALF” value in assay [2] was “decreased significantly”. Also, the “myeloperoxidase (MPO) in BALF” value in assay [3] was “significantly reduced”. The “neutrophil score, inflammation score and interstitial inflammation score: dose dependence” value in assay [4] (6, 24 and 72 hours post LPS-induction) was “dose dependent changes”. The “neutrophil score (histology)” value in assay [4] (24 hours, group 6 (100 μg/mouse) compared to LPS control (group 2), FIG. 7B) is on record as “statistically significant decreases”. Besides, the “inflammation score (inflammation-neutrophilic alveolar score, histology)” value in assay [4] (24 hours, group 6 (100 μg/mouse) compared to LPS control (group 2), FIG. 8B) is given as “statistically significant decreases”. Further, the “interstitial inflammation score (histology)” value in assay [4] (24 hours, group 6 (100 μg/mouse) compared to LPS control (group 2), FIG. 9B) is “statistically significant decreases”. Further, in assay [4] (groups 4, 5 and 6 (2.5, 25, 100 μg/animal IV)), the lung injury score entry was “consistently and substantially decreased”. Further, the “pathological changes in the lung (alveolar wall not intact, interstitial edema, inflammatory cell infiltration)” value in assay [4] (groups 4, 5 and 6 (2.5, 25, 100 μg/animal IV), H&E) is listed as “alleviated”. Further, in assay [4] (setting [5]), the “lung damage relative to dexamethasone treated animals (group 3)” value is reported as “comparable or less than” and the “positive effect on lung pathology relative to positive control dexamethasone (group 3)” value is on record as “comparable to or better than”.
